Experimental findings from article PMC12552968, “The RING-finger domain of Arabidopsis RMR functions as an E3 ligase essential for post-Golgi trafficking” (The Journal of Biological Chemistry, 2025) are described below.

The assay concerns the target T1, Arabidopsis E2 ubiquitin-conjugating enzyme AtUbc30 (Arabidopsis, UniProt Q9FKT3 1-148).
T1 construct: AtUbc30, Arabidopsis E2 ubiquitin-conjugating enzyme, At5g56150; source: E. coli SoluBL21, purified (GSTrap Sepharose, PreScission cleavage, gel filtration)
Nature of the assay: pull-down; AtUbc30 (50 to 60 μM) with equimolar GST, wildtype or I234Y GST-AtRMR1-RING in the presence of GSTrap Sepharose; 30 mM Tris pH 7.5, 150 mM NaCl, 2 mM DTT; 4 h at 4 °C; eluted with 20 mM reduced glutathione; 15% SDS-PAGE, Coomassie blue. The conditions noted are these: both partners purified.

T1 sequence (Q9FKT3 whole entry): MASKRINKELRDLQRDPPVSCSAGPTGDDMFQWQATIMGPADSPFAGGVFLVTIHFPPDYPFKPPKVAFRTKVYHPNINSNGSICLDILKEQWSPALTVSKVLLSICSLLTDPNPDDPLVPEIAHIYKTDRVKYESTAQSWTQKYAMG

B1: GST-tagged RING-H2 domain of Arabidopsis RMR isoform-1 (GST-AtRMR1-RING), wildtype (domain or fragment, UniProt Q9M622 206-283, looked up)
chain: RLDAKLVHTLPCFTFTDSAHHKAGETCAICLEDYRFGESLRLLPCQHAFHLNCIDSWLTKWGTSCPVCKHDIRTETMS
notes: AtRMR1 (receptor-homology-transmembrane-RING-H2 protein 1), Arabidopsis, At5g66160, RING-H2 domain, residues 206-283; The methods tell only the purification of the form with the GST tag cleaved; also called E3; source: E. coli SoluBL21 (pGEX-6p-1), recombinant
For B1, the binding result is “binds”.
